Assay results reported in patent US20250340623A1 (AC IMMUNE, published 2025).

B1: ACI-1113D10_4317A4 (bispecific antibody, V domains shown)
VH 1: EVQLVESGGGLVQPKGSLKLSCAASGFTFNTYALHWVRQAPGKGLEWVARIRSKSSNYATYYADSVKDRFTISRDDSQSMLYLQMNNLKTEDTGMYYCVRGGVSPFDYWGQGTTLTVSS
VL 1: QIVLTQSPAIMSASPGEKVTMTCSASSSVSYMHWYQQKSGTSPKRWIYDTSKLASGVPARFSGSGSGTSYSLTISSMEAEDSATYYCQQWSNNPPTFGGGTKLEIK
VH 2: EVQLQQSGAELVRPGASVKLSCTASGFNIKDDYMHWVKQRPEQGLEWIGWIDPENGDTEYASKFQGKATMTADTSSNTAYLQLSSLTSEDTAVYYCKTWGTTQALFPYWGQGTLVTVSA
VL 2: DIVMTQSQKFMYTSVGDRVSITCKASQNVGNAVGWYQQKAGQSPKLLIHSASNRYTGVPDRFTGTGSGTDFTLTINNMQSEDLADYFCQQYRSYPLTFGAGTKLELK
notes: biparatopic; Arm A ACI-7067-1113D10-Ab1, Arm B ACI-7088-4317A4-Ab1; engineered constant domains not specified
B2: ACI-4F3_4317A4 (bispecific antibody, V domains shown)
VH 1: EVQLQQSGPELVKPGASVKISCKASGYTFTDYYMNWVKQSHGKSLEWIGDINPNTGTNSYNQKFKGRASLTVDKFSSAAYMELRSLTSEDSAVYYCARTGYGDPISSYYYALDYWGQGTSVTVSS
VL 1: DIVMSQSPSSLAVSAGEKVTMSCKSSQSLLNSRTRKNYLAWYQQKPGQSPKLLIYWASTRESGVPDRFTGSGSGTDFTLTISSVQAEDLAVYYCKQSYNLWTFGGGTKLEIK
VH 2: B1 VH 2
VL 2: B1 VL 2
notes: biparatopic; Arm A ACI-8033-4F3-Ab1, Arm B ACI-7088-4317A4-Ab1; engineered constant domains not specified
B3: ACI-5A12_3108C10 (bispecific antibody, V domains shown)
VH 1: QVHLKQSGADLVRPGASVKLSCKASGYTFTDYYINWVKQRPGQGLEWIARIYPGSGNTYYNEKFKGRATLSAEKSSTTAYMQLSSLTSEDSAVYFCVVGYYGAWGQGTTLTVSS
VL 1: DVVMTQTPLSLPVSLGDQASISCRSSQSLVHSNGKTHLHWYLQKPGQSPKLLIYKVSNRFSGVPDRFSGSGSGTDFTLKISRVEAEDLGVYFCSQSTHVPWTFGGGTKLEIK
VH 2: ELQLVESGGGLVRPGGSLKLSCATSGFTFRNYAMSWVRQTPAKRLEWVATISDGGTYTFYSDNVKGRFTISRDNVKNTLYLQMSHLKSEDTAMYYCSRAGSGHWGQGTTLTVSS
VL 2: not shown
notes: biparatopic; Arm A ACI-8033-5A12-Ab1, Arm B ACI-7079-3108C10-Ab2; engineered constant domains not specified
B4: ACI-2503C6_1101C8 (bispecific antibody, V domains shown)
VH 1: DVQLQESGPGLVKPSQSLSLTCSVTGYSITSGYYWNWIRLFPGNKLEWLGYINYDGSNNFNPSLKNRISITRDTSKNQFFLKLNSVTSEDTATYFCLRGDWDWGQGTLVTVSA
VL 1: not shown
VH 2: EVQLVESGGGLVQPKGSLKLSCAASGFSFNIYAMNWVRQAPGKGLEWVARIRSKSNNYATYYADSVKDRFTISRADSESMLYLQMNNLKTEDTAMYYCVRVGLRFYAMDYWGQGTSVTVSS
VL 2: DVLMTQTPLSLPVSLGDQASISCRSSQSIVHSNGNTYLEWYLQKPGQSPKLLIYKVSNRFSGVPDRFSGSGSGTDFTLKISRVEAEDLGVYYCFQGSQGPLTFGAGTKLELK
notes: biparatopic; Arm A ACI-7079-2503C6-Ab1, Arm B ACI-7067-1101C8-Ab2; engineered constant domains not specified
B5: ACI-4F3_5A12 (bispecific antibody, V domains shown)
VH 1: B2 VH 1
VL 1: B2 VL 1
VH 2: B3 VH 1
VL 2: B3 VL 1
B6: ACI-1108B11_27D8 (bispecific antibody, V domains shown)
VH 1: EVQLVESGGGLVQPKGSLKLSCAASGFTFNTYAMHWVRQAPGKGLEWVARIRSKGSNYATNYADSVKDRFTISRDDSQSMLYLQMNNLKTEDTAMYYCVRGHGSSYFSYWGQGTLVTVSA
VL 1: QIVLTQSPAIMSASPGERITMTCSANSSVTYMHWYQQKSGTSPKRWIYDTSNLASGVPARFSGSGSGTSYSLTISSMEAEDAATYYCQQWKSHPPTFGAGTKLELK
VH 2: EVQLVESGGGLVQPKGSLKLSCAASGFTFNTYAMNWVRQAPGKGLEWVARIRSKSNNFATYYADSVKDRFTISRDESESMLYLQMNNLKAEDTAMYYCVRSFDYWGQGTTLTVSS
VL 2: DIKMTQSPSSMYASLGERVTITCKASQDINSYLSWFQQKPGKSPKTLIYRAKRLVDGVPSRFSGSGSGQDYSLTISSLEYEDMGIYYCLQYDEFPFTFGSGTKLEIK
B7: Fab ACI-7067-1113D10-Ab1 (Fab, V domains shown)
VH: B1 VH 1
VL: B1 VL 1
B8: Fab ACI-7067-1108H1-Ab1 (Fab, V domains shown)
VH: EVKLVESGGGLVQPGGSMKLSCTASGFTFSDAWMNWVRQSPEKGLEWVAEIRNKAHNHATNYAESVKGRFTISGDDSKSSVYLQMNNLRAEDTGIYYCTIYSFWGQGTLVTVSA
VL: SIVMTQTPKFLLVSAGDRVTITCKASQSVTNYVAWYHQKPGQSPKLLIYSASNRYSGVPDRFTGSGYGTDFTFTINTVQTEDLAVYFCQQDYRIPYTFGGGTKLEIK
B9: Fab ACI-7067-1101C8-Ab2 (Fab, V domains shown)
VH: B4 VH 2
VL: B4 VL 2
B10: Fab ACI-7067-1108B11-Ab2 (Fab, V domains shown)
VH: B6 VH 1
VL: B6 VL 1

molecular target: T1, alpha-synuclein fibrils (UniProt P37840 1-140); test: SPR, captured bAb
Method: (§1) Binding affinity of alpha-synuclein biparatopic antibodies to monomeric or fibrillar alpha-synuclein species was performed using a single-cycle kinetics method. The instrument was primed with 1×HBS-P+ buffer (10× stock from GE Healthcare, BR-1003-52 diluted in Milli-Q water). Injections of monomeric alpha-synuclein (Boston Biochem, SP-485), increasing in concentration from 0.62-50 nM prepared from serial 2-fold dilutions, were performed with contact times of 300 sec/injection at a flow rate of 30 μL/min. A dissociation phase of 900 sec followed the final 50 nM injection. Regeneration of the sensor to the goat anti-human antibody layer was achieved using 3 regenerations of 10 mM Glycine pH 1.7. […] Regeneration of the sensor to the goat anti-mouse antibody layer was achieved using 3 regenerations of 10 mM Glycine pH 1.7. Results obtained from single-cycle kinetics were evaluated by Biacore 8K evaluation software with 1:1 binding homogenous Langmuir model with a preceeding buffer injection as a blank subtraction. The following kinetic parameters were obtained: on-rate (ka), off-rate (kd), affinity constant (KD, ratio of kd by ka), maximum response (Rmax), and goodness of fit (Chi2).

Row | Binder | fold slower dissociation rate (Kd) from fibrillar than from monomeric alpha-synuclein [fold]
1 | B1 | ≥ 100
2 | B2 | ≥ 100
3 | B3 | ≥ 100
4 | B4 | ≥ 100

molecular target: T2, monomeric alpha-synuclein (UniProt P37840 1-140); test: SPR, captured bAb
Method: (§2) Any non-covalently bound antibodies were removed by three successive regenerations of 10 mM Glycine pH 1.7 (GE Healthcare, 28-9950-84). Immobilization levels were evaluated following ethanolamine capping (Bound) and finally following regeneration (Final). Non-covalent immobilization of alpha-synuclein biparatopic antibodies on flow cell 2 of channels 1-8 was performed at a final concentration of 5 μg/mL, diluted in 10 mM sodium acetate pH 5.5 (GE Healthcare, BR-1003-52). Non-covalent immobilization of an isotype control antibody on flow cell 1 of channels 1-8 was performed at a final concentration of 5 μg/mL, diluted in 10 mM sodium acetate pH 5.5 (GE Healthcare, BR-1003-52).
as §1
(§3) Kinetic constants were determined from 1:1 homogenous binding models for all cases.

Row | Binder | koff [s⁻¹] | kon [M⁻¹ s⁻¹]
5 | B1 | 0.000514 | 1.23e+06
6 | B2 | 0.00103 | 884000
7 | B3 | > 1 | > 2.9e+07
8 | B4 | 0.00025 | 220000

molecular target: T1, alpha-synuclein fibrils; test: SPR, captured bAb; remark: another data set of the same source
Method: as §2, §1, §3

Row | Binder | koff [s⁻¹] | kon [M⁻¹ s⁻¹]
9 | B1 | 3.48e-07 | 56800
10 | B2 | 7.84e-08 | 51700
11 | B3 | 9.19e-05 | 11200
12 | B4 | 1.53e-07 | 61600

molecular target: T3, alpha-synuclein seeds (UniProt P37840 1-140); test: cell-based or functional assay

Row | Binder | IC50, percentage of de novo alpha-synuclein aggregates formed in cells after immunodepletion of seeds [nM]
13 | B3 | 22.7
14 | B5 | 15.2
15 | B6 | 8.6

molecular target: T3, alpha-synuclein seeds; test: cell-based or functional assay; remark: another data set of the same source

Row | Binder | aggregation half-time (τ1/2) of seeded alpha-synuclein aggregation, ThT; no antibody 18.0 hours [h]
16 | B7 | 21
17 | B8 | 19.4
18 | B9 | 26.3
19 | B10 | 22.3

molecular target: T2, monomeric alpha-synuclein; test: SPR, captured bAb; head says nM, kd/ka gives M
Method: as §2, §1, §3

Row | Binder | Kd [nM]
20 | B1 | 0.416
21 | B2 | 1.17
22 | B3 | 34.5
23 | B4 | 1.14

molecular target: T1, alpha-synuclein fibrils; test: SPR, captured bAb; head says nM, kd/ka gives M
Method: as §2, §1, §3

Row | Binder | Kd [pM]
24 | B1 | 6.14
25 | B2 | 1.52
26 | B3 | 8210
27 | B4 | 2.48
